The results in this text go back to patent publication US20070100561A1 (published 2007).

This assay concerns the target T1, DPP-IV as immobilized on the CM5 surface plasmon resonance sensor (Biacore) (human, UniProt P27487 31-766).
T1 construct: Same recombinant sDPP-IV polypeptide as m1; Amine-coupled, about 10 000 RU; in one flow cell cross-linked with carbodiimide/N-hydroxysuccinimide; also called sDPP-IV
In words: SPR (Biacore), DPP-IV immobilized on CM5 sensor. Here is the method:
The organic adlayer on this sensor type consists of carboxymethylated dextran (MW≈100 kDA). […] The surfaces of two flow cells were modified with protein. […] Hepes buffer (0.01 M Hepes, pH 7.4, 0.15 M NaCl, 3 mM EDTA, 0.005% polysorbate 20 (v/v)) was used as the running buffer. […] The final inhibitor solution contained less than 0.1% DMSO. Binding experiments were carried out by contacting the immobilized protein surfaces with inhibitor solutions of varying concentrations at a flow rate of 10 μl/min or 30 μl/min. After each contact with inhibitor, the protein surfaces were regenerated by extensively washing with running buffer.
Background: Surface plasmon resonance follows binding to a sensor surface in real time, without labels.

The Kd is the constant that tells how readily two partners part at equilibrium. High values mean a looser complex, low ones a tighter complex. For orientation: koff means the rate constant with which the complex falls apart. One may read the kon as a measure of how fast the partners come together. High values mean fast association, low ones slow association.

T1 sequence (P27487 31-766 limits assumed): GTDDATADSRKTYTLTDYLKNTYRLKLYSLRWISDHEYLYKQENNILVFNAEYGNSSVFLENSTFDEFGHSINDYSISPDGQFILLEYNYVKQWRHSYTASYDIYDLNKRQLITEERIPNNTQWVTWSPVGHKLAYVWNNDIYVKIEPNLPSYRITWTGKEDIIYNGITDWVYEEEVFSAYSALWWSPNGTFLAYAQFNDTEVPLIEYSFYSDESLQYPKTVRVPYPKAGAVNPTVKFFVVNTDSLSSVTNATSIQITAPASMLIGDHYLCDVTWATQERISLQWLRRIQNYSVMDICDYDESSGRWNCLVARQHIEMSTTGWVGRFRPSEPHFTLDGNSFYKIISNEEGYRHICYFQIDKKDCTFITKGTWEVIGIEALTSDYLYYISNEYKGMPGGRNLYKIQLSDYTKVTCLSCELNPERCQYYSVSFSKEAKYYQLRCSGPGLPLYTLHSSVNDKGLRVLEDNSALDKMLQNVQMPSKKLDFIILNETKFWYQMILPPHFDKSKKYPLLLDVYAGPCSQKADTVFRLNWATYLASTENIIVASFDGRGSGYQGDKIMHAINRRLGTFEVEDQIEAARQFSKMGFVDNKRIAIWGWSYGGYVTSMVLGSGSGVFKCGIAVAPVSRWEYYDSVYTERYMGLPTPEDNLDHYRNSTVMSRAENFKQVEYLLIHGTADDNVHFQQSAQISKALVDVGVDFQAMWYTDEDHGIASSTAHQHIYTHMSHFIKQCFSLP

B1: adenosine deaminase (ADA; Sigma Type IV, from calf intestinal mucosa) (enzyme, bovine, UniProt P56658 2-357, looked up)
chain: AQTPAFNKPKVELHVHLDGAIKPETILYYGRKRGIALPADTPEELQNIIGMDKPLSLPEFLAKFDYYMPAIAGCREAVKRIAYEFVEMKAKDGVVYVEVRYSPHLLANSKVEPIPWNQAEGDLTPDEVVSLVNQGLQEGERDFGVKVRSILCCMRHQPSWSSEVVELCKKYREQTVVAIDLAGDETIEGSSLFPGHVKAYAEAVKSGVHRTVHAGEVGSANVVKEAVDTLKTERLGHGYHTLEDATLYNRLRQENMHFEVCPWSSYLTGAWKPDTEHPVVRFKNDQVNYSLNTDDPLIFKSTLDTDYQMTKNEMGFTEEEFKRLNINAAKSSFLPEDEKKELLDLLYKAYGMPSPA
notes: Bought protein purified from tissue; also called ADA from bovine
In the case of B1, binding was put at a Kd of 3.15 nM, the off-rate constant (koff) is 8.75e-05 s⁻¹ and the on-rate (kon) came out at 29800 M⁻¹ s⁻¹.
